Results taken from US20150259426A1 (Novartis, published 2015).

Target: cell-bound human DR5 (Colo205 and other human cell lines) (human, UniProt O14763 56-440)
Test: cell-based or functional assay

Binder | IC50, cell survival, A549 | IC50, cell survival, BxPC-3 | IC50, cell survival, Colo205 | IC50, cell survival, H226 | IC50, cell survival, H2122 | IC50, cell survival, Jurkat (72) | IC50, cell survival, M30 | IC50, cell survival, MiaPaCa-2 | IC50, cell survival, Panc-1 | IC50, cell survival, T24 | fold improvement of IC50, penta against tetra, A549 | fold improvement of IC50, penta against tetra, BxPC-3 | fold improvement of IC50, penta against tetra, Colo205 | fold improvement of IC50, penta against tetra, H226 | fold improvement of IC50, penta against tetra, H2122 | fold improvement of IC50, penta against tetra, Jurkat (72) | fold improvement of IC50, penta against tetra, M30 | fold improvement of IC50, penta against tetra, MiaPaCa-2 | fold improvement of IC50, penta against tetra, Panc-1 | fold improvement of IC50, penta against tetra, T24
11H6-Hu penta (11H6 hu pentamer) (other) EVQLLESGGGLVQPGGSLRLSCAASGTFDKINNMGWYRQAPGKQRDLVAQITPGGITDYADSVKGRFTISRDNSKNTLYLQMNSLRPEDTAVYYCNAEILKRAYIDVYVNYWGQGTLVTVSSGGGGSGGGGSGGGGSGGGGSGGGGSGGGGSGGGGSEVQLLESGGGLVQPGGSLRLSCAASGTFDKINNMGWYRQAPGKQRDLVAQITPGGITDYADSVKGRFTISRDNSKNTLYLQMNSLRPEDTAVYYCNAEILKRAYIDVYVNYWGQGTLVTVSSGGGGSGGGGSGGGGSGGGGSGGGGSGGGGSGGGGSEVQLLESGGGLVQPGGSLRLSCAASGTFDKINNMGWYRQAPGKQRDLVAQITPGGITDYADSVKGRFTISRDNSKNTLYLQMNSLRPEDTAVYYCNAEILKRAYIDVYVNYWGQGTLVTVSSGGGGSGGGGSGGGGSGGGGSGGGGSGGGGSGGGGSEVQLLESGGGLVQPGGSLRLSCAASGTFDKINNMGWYRQAPGKQRDLVAQITPGGITDYADSVKGRFTISRDNSKNTLYLQMNSLRPEDTAVYYCNAEILKRAYIDVYVNYWGQGTLVTVSSGGGGSGGGGSGGGGSGGGGSGGGGSGGGGSGGGGSEVQLLESGGGLVQPGGSLRLSCAASGTFDKINNMGWYRQAPGKQRDLVAQITPGGITDYADSVKGRFTISRDNSKNTLYLQMNSLRPEDTAVYYCNAEILKRAYIDVYVNYWGQGTLVTVSS | > 10000 pM | 4.6 pM | 1.2 pM | 12.4 pM | 1.7 pM | 1.7 pM | > 10000 pM | 3.1 pM | 6.7 pM | 3.1 pM | 1 fold | 3 fold | 3 fold | 14 fold | 2 fold | 4 fold | 1 fold | 4 fold | 35 fold | 7 fold
4E6-Hu penta (4E6 hu pentamer) (other) EVQLLESGGGLVQPGGSLRLSCAASGRTFGSIRVGWFRQAPGKGREFVSAINRNDGTTYYADSVKGRFTISRDNSKNTVYLQMNSLRPEDTAVYYCAAGLQYNRAADRVPVGAVYWGQGTLVTVSSGGGGSGGGGSGGGGSGGGGSGGGGSGGGGSGGGGSEVQLLESGGGLVQPGGSLRLSCAASGRTFGSIRVGWFRQAPGKGREFVSAINRNDGTTYYADSVKGRFTISRDNSKNTVYLQMNSLRPEDTAVYYCAAGLQYNRAADRVPVGAVYWGQGTLVTVSSGGGGSGGGGSGGGGSGGGGSGGGGSGGGGSGGGGSEVQLLESGGGLVQPGGSLRLSCAASGRTFGSIRVGWFRQAPGKGREFVSAINRNDGTTYYADSVKGRFTISRDNSKNTVYLQMNSLRPEDTAVYYCAAGLQYNRAADRVPVGAVYWGQGTLVTVSSGGGGSGGGGSGGGGSGGGGSGGGGSGGGGSGGGGSEVQLLESGGGLVQPGGSLRLSCAASGRTFGSIRVGWFRQAPGKGREFVSAINRNDGTTYYADSVKGRFTISRDNSKNTVYLQMNSLRPEDTAVYYCAAGLQYNRAADRVPVGAVYWGQGTLVTVSSGGGGSGGGGSGGGGSGGGGSGGGGSGGGGSGGGGSEVQLLESGGGLVQPGGSLRLSCAASGRTFGSIRVGWFRQAPGKGREFVSAINRNDGTTYYADSVKGRFTISRDNSKNTVYLQMNSLRPEDTAVYYCAAGLQYNRAADRVPVGAVYWGQGTLVTVSS | > 10000 pM | 5 pM | 0.7 pM | 27.2 pM | 0.8 pM | 3.6 pM | > 10000 pM | 3.8 pM | 10.5 pM | 4.3 pM | 1 fold | 6 fold | 5 fold | 5 fold | 7 fold | 5 fold | 1 fold | 5 fold | 22 fold | 10 fold
